Assay results from patent publication US7625735B2, “Recombinant kinase from insect cells for the synthesis of nucleoside monophosphates” (Roche Diagnostic Operations, Inc., priority 1998, dated 2009).

Tests used:
[1] = Activity of the kinase from D. Melanogaster at different temperatures; type: biochemical; conditions: wide optimum
Protocol: The activity of the Dm-nucleoside kinase was determined at different temperatures. […] (see FIG. 6).
The activity test is described in reference No. 14.

[2] = Kinetic constants of the Drosophila kinase compared to known analogous enzymes; type: biochemical; conditions: versus hitherto known kinases, Kc values
Text: Furthermore, […]; as a consequence, for the synthesis of the individual nucleosides it is no more necessary to have the corresponding specific kinase. Particularly advantageous is the low specificity for the synthesis of modified nucleoside analogues, such as dideoxynucleosides or base- or sugar-modified nucleosides. Base-modified nucleosides are for example 7-deaza-nucleosides, C-nucleosides and nucleotides labelled with reporter groups (dye, digoxigenin, biotin) at the base. Sugar-modified nucleosides are for example azathymidine, arabinosyl-thymidine. The specific activity kc of the kinase according to the invention is several times higher than that of the kinases known before. The activity of the enzyme was measured as described in the reference: Munch-Peterson et al. (1991) J. Biol. Chem. 266, 9032-9038. By this, a considerably lower amount of enzyme is necessary to synthesize the dNMPs. (factor 3.5-14000, cf. Kc values in table 1). The specificity constant (kc/KM) of the kinase according to the invention exceeds that of the hitherto known kinases by several powers and is in the region of the diffusion constant. This leads to the complete yield when the kinase is added to the d-NMP synthesis. They are higher by factor 2-6500 than the hitherto known kinases, s. FIG. 1. […]

[3] = Stability: remaining activity of recombinant versus native Dm-kinase after incubation at 37° C.; type: physicochemical
Protocol: The activity of the recombinant Dm-kinase compared to native, isolated Dm-kinase was determined. After different periods of incubation in 50 mM Tris 7.5+2.5 mM MgCl2 at 37° C. the remaining activity was determined.

temperature of maximum activity [1] [°C] | Molecule | factor by which specific activity kc exceeds known kinases (lower amount of enzyme necessary) [2] | stability (remaining activity) ([3]; 50 mM Tris 7.5+2.5 mM MgCl2, 37° C., without addition of BSA) | half-life ([3]; Tris buffer in the presence of MgCl2, 37° C.) [h] | half-life ([3]; Tris buffer without MgCl2, 37° C.) [h] | half-life ([3]; pure water) [h] | stability (remaining activity) ([3]; 50 mM Tris 7.5+2.5 mM MgCl2, 37° C., with 2.5 mg/ml BSA) | half-life ([3]; under the same conditions) [h] | remaining activity ([3]; within 50 min, 50 mM Tris 7.5+2.5 mM MgCl2, 37° C., without BSA) [%]
60 | recombinant Dm-kinase: recombinant multifunctional deoxynucleoside kinase from Drosophila Melanogaster, expressed in E. coli (protein, UniProt Q9XZT6 1-250, looked up) Deoxynucleoside kinase: MAEAASCARKGTKYAEGTQPFTVLIEGNIGSGKTTYLNHFEKYKNDICLLTEPVEKWRNVNGVNLLELMYKDPKKWAMPFQSYVTLTMLQSHTAPTNKKLKIMERSIFSARYCFVENMRRNGSLEQGMYNTLEEWYKFIEESIHVQADLIIYLRTSPEVAYERIRQRARSEESCVPLKYLQELHELHEDWLIHQRRPQSCKVLVLDADLNLENIGTEYQRSESSIFDAISSNQQPSPVLVSPSKRQRVAR | 3.5-14000 | remains stable | 50 | 31 | 28 |  |  | 
 | native Dm-kinase: native, isolated deoxynucleoside kinase from Drosophila Melanogaster, used for comparison (protein, UniProt Q9XZT6 1-250, looked up) Deoxynucleoside kinase: MAEAASCARKGTKYAEGTQPFTVLIEGNIGSGKTTYLNHFEKYKNDICLLTEPVEKWRNVNGVNLLELMYKDPKKWAMPFQSYVTLTMLQSHTAPTNKKLKIMERSIFSARYCFVENMRRNGSLEQGMYNTLEEWYKFIEESIHVQADLIIYLRTSPEVAYERIRQRARSEESCVPLKYLQELHELHEDWLIHQRRPQSCKVLVLDADLNLENIGTEYQRSESSIFDAISSNQQPSPVLVSPSKRQRVAR |  |  |  |  |  | remains stable | < 0.2 | < 20
